Experimental findings from patent US20250075002A1 (BEIGENE SWITZERLAND, published 2025) are described below.

Assay [1] concerns the target T1, human CD16B (NA1) on NK92mi cells (human, UniProt O75015 17-200).
T1 construct: also called NK92mi/CD16B (NA1); NK92mi/CD16B NA1
T1 chain: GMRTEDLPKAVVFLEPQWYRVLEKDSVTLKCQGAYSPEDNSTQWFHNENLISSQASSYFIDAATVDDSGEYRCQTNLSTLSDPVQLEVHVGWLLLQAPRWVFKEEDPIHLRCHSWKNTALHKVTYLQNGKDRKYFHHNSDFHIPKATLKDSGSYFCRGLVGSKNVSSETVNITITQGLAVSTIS
The assay is described as follows: flow cytometry on NK92mi/CD16B (NA1) cells; fit not meaningful. For orientation: A flow cytometer gives signals particle by particle.

Assay [2] has as its target T2, cyno CD16-His6 (cyno, UniProt Q8SPW2 17-208).
T2 construct: Bought ECD fragment; not shown: six-histidine tag (His6)
The assay is described as follows: antigen ELISA, coated Cyno CD16, HRP anti-human IgG; one concentration (paragraph 202 prints 1 mg/ml).

Assay [3] addresses T3, human CD16A (V158) on NK92mi cells (human, UniProt P08637 17-254).
T3 construct: NK92mi cells co-transduced with CD16A (V158) and FcRgamma cDNAs; also called NK92mi/CD16A V158; NK92mi/CD16A
Nature of the assay: flow cytometry on NK92mi/CD16A cells (V158 by paragraph 201).

The next assay deals with T4, human CD16B-His6 (SH) (human, UniProt O75015 17-200).
T4 construct: Bought ECD fragment; also called CD16B SH allotype; human CD16B (SH); not shown: six-histidine tag (His6)
Nature of the assay: antigen ELISA, coated Human CD16B (SH), HRP anti-human IgG. For orientation: ELISA stands for enzyme-linked immunosorbent assay.

Assay [4] has as its target T5, human CD16B (NA2) on NK92mi cells (human, UniProt O75015 17-200).
T5 construct: also called NK92mi/CD16B (NA2); NK92mi/CD16B NA2
T5 chain: T1 chain with R20S, N49S, D66N, V90I
The assay is described as follows: flow cytometry on NK92mi/CD16B (NA2) cells.

In assay [5] the target is T6, human CD16A-His6 (V158) (human, UniProt P08637 17-208).
T6 construct: Bought (Sino Biologics) ECD fragment; also called CD16A 158V; human CD16A (V158); not shown: six-histidine tag (His6)
Nature of the assay: antigen ELISA, coated Human CD16A (V158), HRP anti-human IgG; one concentration (paragraph 202 prints 1 mg/ml).

Assay [6] has as its target T1, human CD16B (NA1) on NK92mi cells. The assay is described as follows: flow cytometry on live NK92mi/CD16B NA1 cells, 300 nM VHH-Fc.
In assay [7] the target is T7, human CD16A (F158) on NK92mi cells (human, UniProt P08637 17-254).
T7 construct: NK92mi cells co-transduced with CD16A (F158) and FcRgamma cDNAs; also called NK92mi/CD16A F158
The assay is described as follows: flow cytometry, biotinylated VHH-Fc on NK92mi/CD16A 158F cells, with 10 mg/ml human IgG1 CB6 as competitor.

In assay [8] the target is T2, cyno CD16-His6. The assay is described as follows: SPR; VHH-Fc captured on anti-human Fc surface.
The target of assay [9] is T7, human CD16A (F158) on NK92mi cells. The assay is described as follows: flow cytometry on live NK92mi/CD16A 158F cells.
Assay [10] deals with T8, human CD16B-His6 (NA1) (human, UniProt O75015 17-200).
T8 construct: Bought ECD fragment; also called CD16B NA1; human CD16B (NA1); not shown: six-histidine tag (His6)
T8 chain: T1 chain
The assay is described as follows: SPR; VHH-Fc captured on anti-human Fc surface; row head prints 'KD (nM)', taken as M like the rest of the table. On the technique in general: In SPR one partner is held on a chip, and binding of the other changes the refractive index at the surface.

Assay [11] deals with T9, human CD16B-His6 (NA2) (human, UniProt O75015 17-200).
T9 construct: Bought ECD fragment; also called CD16B NA2; human CD16B (NA2); not shown: six-histidine tag (His6)
T9 chain: T1 chain with R20S, N49S, D66N, V90I
The assay is described as above.

For assay [12], the target named is T2, cyno CD16-His6. Nature of the assay: SPR; VHH-Fc captured on anti-human Fc surface; column head prints 'KD (nM)', koff/kon shows M.
Assay [13] deals with T8, human CD16B-His6 (NA1). The assay is described as follows: SPR; VHH-Fc captured on anti-human Fc surface; row head prints 'KD (nM)', taken as M like the rest of the table.
The target in assay [14] is T9, human CD16B-His6 (NA2). The assay is described as above.
Assay [15] addresses T7, human CD16A (F158) on NK92mi cells. Nature of the assay: flow cytometry on NK92mi/CD16A 158F cells.
For assay [16], the target named is T1, human CD16B (NA1) on NK92mi cells. Nature of the assay: flow cytometry on NK92mi/CD16B (NA1) cells.
Assay [17] concerns the target T10, human CD16A-His6 (F158) (human, UniProt P08637 17-208).
T10 construct: Bought ECD fragment; also called human CD16A (F158); not shown: six-histidine tag (His6)
The assay is described as follows: SPR; VHH-Fc captured on anti-human Fc surface.

Assay [18] has as its target T6, human CD16A-His6 (V158). The assay is described as follows: SPR; VHH-Fc captured on anti-human Fc surface.
The target in assay [19] is T1, human CD16B (NA1) on NK92mi cells. The assay is described as follows: flow cytometry, NK92mi/CD16B (NA1) against NK92mi/CD16A cells (weaker on CD16B).
Assay [20] deals with T10, human CD16A-His6 (F158). The assay is described as follows: SPR; VHH-Fc captured on anti-human Fc surface; row head prints 'KD (nM)', koff/kon shows M.
Assay [21] deals with T6, human CD16A-His6 (V158). Described as above.
In assay [22] the target is T7, human CD16A (F158) on NK92mi cells. Nature of the assay: flow cytometry, biotinylated VHH-Fc on NK92mi/CD16A 158F cells, without human IgG1 (CB6).
The target in assay [23] is T10, human CD16A-His6 (F158). Nature of the assay: SPR; VHH-Fc captured on anti-human Fc surface; row head prints 'KD (nM)', koff/kon shows M. This is another data set of the same source.
Assay [24] concerns the target T6, human CD16A-His6 (V158). The assay is described as above. The source holds these as a separate data set.
Assay [25] addresses T10, human CD16A-His6 (F158). The assay is described as follows: SPR; VHH-Fc captured on anti-human Fc surface. This is another data set of the same source.
In assay [26] the target is T6, human CD16A-His6 (V158). The assay is described as follows: SPR; VHH-Fc captured on anti-human Fc surface. The source holds these as a separate data set.
For assay [27], the target named is T5, human CD16B (NA2) on NK92mi cells. Nature of the assay: flow cytometry on live NK92mi/CD16B NA2 cells, 300 nM VHH-Fc.

Numbering of substitutions follows the chain as printed. Read-outs that look alike come from different tables or passages of the source.

T2 sequence (Q8SPW2 17-208): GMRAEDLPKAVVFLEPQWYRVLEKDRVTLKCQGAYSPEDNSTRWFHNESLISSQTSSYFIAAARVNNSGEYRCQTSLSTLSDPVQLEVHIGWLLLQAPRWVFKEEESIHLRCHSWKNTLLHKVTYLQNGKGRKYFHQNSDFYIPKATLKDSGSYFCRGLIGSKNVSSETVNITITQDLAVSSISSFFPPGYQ

B1: LS21 (scFv)
scFv: EVQLVQSGAEVKKPGESLKVSCKASGYTFTSYYMHWVRQAPGQGLEWMGIINPSGGSTSYAQKFQGRVTMTRDTSTSTVYMELSSLRSEDTAVYYCARGSAYYYDFADYWGQGTLVTVSSGGGGSGGGGSGGGGSQPVLTQPSSVSVAPGQTATISCGGHNIGSKNVHWYQQRPGQSPVLVIYQDNKRPSGIPERFSGSNSGNTATLTISGTQAMDEADYYCQVWDNYSVLFGGGTKLTVL
B1: the EC50 (usually the concentration at which the effect is half-maximal) in [1] is around 155000 µg/mL; in assay [3], 1.04 µg/mL; in assay [4] it was 0.136 µg/mL. Besides, the binding result with cyno CD16-His6 [2] is “binds”; in the assay with human CD16B-His6 (SH) it was “no binding”; in the assay with human CD16A-His6 (V158) [5], “binds”.

B2: BG523P (VHH-Fc) (VHH)
chain: QVQLVESGGGVVQPGGSLTLSCEASGRTFGSYAVGWFRQALGRGREFVAAIRRSDGTTDYVDSVKGRFTISRDNAKNTVYLQMNSLKPEDTAVYYCAASDSDYEPLGDYWGQGTQVTVSSEPKSSDKTHTCPPCPAPPAAGPSVFLFPPKPKDTLMISRTPEVTCVVVDVSHEDPEVKFNWYVDGVEVHNAKTKPREEQYNSTYRVVSVLTVLHQDWLNGKEYKCKVSNKALAAPIEKTISKAKGQPREPQVYTLPPSREEMTKNQVSLTCLVKGFYPSDIAVEWESNGQPENNYKTTPPVLDSDGSFFLYSKLTVDKSRWQQGNVFSCSVMHEALHNHYTQKSLSLSPGK
notes: Alpaca anti-CD16A VHH fused to a C-terminal human IgG1 mf Fc tag (VHH-Fc); also called parental clone
With B2, the “Binding signal at 300 nM (MFI)” value came out at 577 MFI in assay [6] and 65 MFI in [27]. The EC50 in [7] amounted to 6.57 nM; in assay [9], 15.1 nM; in [3], 0.242 µg/mL; in assay [15], 10.6 nM; in assay [16], 9.52 µg/mL; in [4], 28.9 µg/mL. This molecule registered a 50% effective concentration (EC50) in [22] of 1.19 nM. Also, the “EMAX (MFI)” value in assay [7] worked out at 21300 MFI; in assay [15] it was 9920 MFI; in [22], 22100 MFI. Also, the dissociation rate constant (koff) (as a rule, a measure of how fast the partners let go of each other) in the assay with cyno CD16-His6 [8] came to 8.09e-05 s⁻¹; with human CD16A-His6 (F158) [17] it was 0.000128 s⁻¹; in the assay with human CD16A-His6 (V158) [18] it was 0.000113 s⁻¹; with human CD16A-His6 (F158) [25] it was 7.88e-05 s⁻¹; in the assay with human CD16A-His6 (V158) [26] it was 6.22e-05 s⁻¹. The kon – broadly, the second-order rate constant of association – with cyno CD16-His6 [8] is 280000 M⁻¹ s⁻¹; in the assay with human CD16A-His6 (F158) [17] it was 319000 M⁻¹ s⁻¹; in the assay with human CD16A-His6 (V158) [18] it was 276000 M⁻¹ s⁻¹; in the assay with human CD16A-His6 (F158) [25], 224000 M⁻¹ s⁻¹; with human CD16A-His6 (V158) [26], 280000 M⁻¹ s⁻¹. Also, the Kd (in general, the free concentration of one partner at which half of the binding sites on the other are occupied at equilibrium, for simple one-to-one binding) with human CD16B-His6 (NA1) [10] turned out to be 1760 nM; with human CD16B-His6 (NA2) [11] it was 4950 nM; with cyno CD16-His6 [12] it was 0.289 nM; in the assay with human CD16B-His6 (NA1) [13] it was 1700 nM; with human CD16B-His6 (NA2) [14], 4260 nM; with human CD16A-His6 (F158) [20], 0.402 nM. Moreover, the values for the Kd with human CD16A-His6 (V158) [21], with human CD16A-His6 (F158) [23] and with human CD16A-His6 (V158) [24] were 0.408 nM, 0.353 nM and 0.222 nM, respectively. Further, the “fold change of EC50 against CD16A binding” value in [19] is around 40 fold.
